In this assay the target is influenza virus nucleoprotein (NP), A/Victoria/3/75, wild type (influenza A virus A/Victoria/3/75). Kind of assay: cryo-EM structure.

Experimental findings from article PMC2695768 are described below.

As usually defined, the stoichiometry N is the number of molecules, sites or subunits per partner or assembly.

In the case of “influenza virus nucleoprotein (NP), A/Victoria/3/75, wild type (natural protein)”, the stoichiometry N stood at 9.
